Tests used:
[1] = target: T1, MAGEA4 peptide on HLA-A*01:01 (human); test: cytokine release
T1 peptide: TLVTCLGLSY
Procedure: (§1) FIG. 7. […] IFNγ release to the supernatant was measured by ELISA after 18 hours of coculture.

[2] = target: T2, MAGEA4 peptide on HLA-A*01:01 (human); test: cytokine release
T2 peptide: WVQENYLEYR
Procedure: as §1

[3] = target: T3, MAGEA4 peptide on HLA-A*01:01 (human); test: cytokine release
T3 peptide: WVQENYLEY
Procedure: as §1

[4] = target: T4, MAGEA4 peptide on HLA-A*01:01 (human); test: cytokine release
T4 peptide: LTQDWVQENY
Procedure: as §1

[5] = target: T5, MAGEA4 peptide on HLA-A*01:01 (human); test: cytokine release
T5 peptide: KEVDPASNTY
Procedure: as §1

[6] = target: T6, MAGEA4 peptide on HLA-A*01:01 (human); test: cytokine release
T6 peptide: TTEEQEAAV
Procedure: as §1

[7] = target: T7, MAGEA4 peptide on HLA-A*01:01 (human); test: cytokine release
T7 peptide: LVTCLGLSY
Procedure: as §1

[8] = target: T8, MAGEA3 peptide on HLA-A*01:01 (human); test: cytokine release
T8 peptide: EVDPIGHLY
Procedure: as §1

[9] = target: T9, MAGEA4 peptide on HLA-A*01:01 (human); test: cytokine release
T9 peptide: TQDWVQENY
Procedure: as §1

[10] = target: T10, MAGEA4 peptide on HLA-A*01:01 (human); test: cytokine release
T10 peptide: ELAHFLLRKY
Procedure: as §1

[11] = target: T11, titin peptide on HLA-A*01:01 (human); test: cytokine release
T11 peptide: ESDPIVAQY
Procedure: as §1

[12] = target: T12, MAGEA4 peptide on HLA-A*01:01 (human); test: cytokine release
T12 peptide: EVDPASNTYT
Procedure: as §1

[13] = target: T13, MAGEA4 peptide on HLA-A*01:01 (human); test: cytokine release
T13 peptide: DWVQENYLEY
Procedure: as §1

[14] = target: T14, MAGEA4 peptide on HLA-A*01:01 (human); test: IFN-gamma ELISA after 18 h; 1x10^5 TCR-transduced T cells with 5x10^4 peptide-loaded K562-A*01:01; two donors pooled, non-linear regression; full-length, on cells
T14 peptide: EVDPASNTY
Procedure: FIG. 6. […] The results of two donors were pooled and normalized as percentage of max. The depicted EC50 value was calculated by non-linear regression.
To calculate the EC50 value, non-linear regression was used to create a dose-response curve (FIG. 6). […] The K562 cells express HLA-A*01:01.

- binding result [1]: no recognition
- binding result [2]: no recognition
- binding result [3]: no recognition
- binding result [4]: no recognition
- binding result [5]: recognises
- binding result [6]: no recognition
- binding result [7]: no recognition
- binding result [8]: no recognition
- binding result [9]: no recognition
- binding result [10]: no recognition
- binding result [11]: no recognition
- binding result [12]: recognises
- binding result [13]: no recognition
- EC50 of peptide [14]: 7.6 nM
B1: CTC-TCR127 (TCR)
alpha TRAV35*01 CDR3: AGQLWGGSNYKLT
beta TRBV5-1*01 CDR3: ASSLAGTGAHFITNEKLF

Source: US20240287156A1 (published 2024)
